In article PMC8054141, “The molecular basis of the inhibition of CaV1 calcium-dependent inactivation by the distal carboxy tail” (The Journal of Biological Chemistry, 2021):

Biological target: T1, Cerulean-ICDI1.4 (human)
T1 construct: CaV1.4 alpha1 subunit, human clone NP005174.2; ICDI domain of the distal carboxy tail; Fluorophore cloned KpnI/NotI and the channel peptide NotI/XbaI in pcDNA3, so Cerulean probably precedes the peptide; also called ICDI domain from CaV1.4; source: HEK293, transiently transfected (PEI), in live cells
Experiment: FRET or BRET; live-cell FRET two-hybrid (3^3-FRET) in HEK293 cells on an inverted microscope; Venus-tagged peptide as acceptor, Cerulean-tagged peptide as donor; FRET ratio of each cell against free donor concentration; Tyrode's bath with 2 mM CaCl2, pH 7.4; relative Kd calibrated and converted to Ka = 1/Kd
Conditions: partners not purified

Ka | Binder
2.14e+07 M⁻¹ | Venus-PreIQ3-IQ-A1.3 (domain or fragment, Limits approximate: about 30 residues PreIQ3 + IQ + about 150 residues A region. Position of the IQ isoleucine (I[0]) on P27732 was inferred as 1656; the paper's numbering (KPY1626, ALQ1635) implies …) not shown
5.8e+06 M⁻¹ | Venus-PreIQ3-IQ-A1.3 F[−2]A (domain or fragment, F[-2]A, two residues before the canonical IQ isoleucine (inferred as 1656 on P27732). Limits approximate, as for m1. Venus tag omitted.) not shown
